Data from the RNAGym collection of RNA variant scans (doi:10.1073/pnas.2313332121).

B1: TPR t1 (parent)
chain: GACCAAUCUGCCCUCAGAGCUCGAGAACAUCUUCGGAUGCAGAGGAGGCAGGCUUCGGUGGCGCGAUAGCGCCAACGUCCUCAACCUCCAAUGCAUCCCACCACAUGAUGAUGCCUGAAGAGCCUUGGUUUUUUG

Variants of: B1
Assay: polymerase ribozyme fitness, log enrichment relative to wild type (log ratio); higher = more active; in vitro selection for triplet polymerase activity
Method in brief: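 One round of in vitro selection, in triplicate, was applied to PCR-built, transcribed mutant libraries of each subunit of a heterodimeric triplet polymerase ribozyme. The steps were annealing with a biotinylated primer, partner subunit and triplets, incubation frozen at −7 °C, gel excision of extended constructs, streptavidin-bead capture and RT-PCR. Fitness is the logarithm, base 2, of genotype enrichment over wild-type enrichment from inverse-variance-weighted replicate averages of Illumina-sequenced inputs and outputs, keeping genotypes with ≥10 input reads and ≥1 read per output.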

Variant | polymerase ribozyme fitness (log ratio)
GACCAAUCUGCCCUCAGAGCUCGAGAACAUCUUCAGAUGCAGAGGAGGCAGGCUUCGGUGGCGCGAUAGCGCCAACGUCCUCAACCUCCAAUGCAUCCUACCACAUGAUGAAGCCUGAAGAGCCUUGGUUUUUUG [G35A C99U U112A] | -3.32
GACCAAUCUGCCCUCAGAGCUCGAGAACAUCUUCAGAUGCAGAGGAGGCAGGCUUCGGUGGCGCGAUAGCGCCAACGUCCUCAACCUCCAAUGCAUCCCACCACAUGAUGAUGCCUGAAGAGCCUUGGUGUUUUG [G35A U130G] | -5.13
GACCAAUCUGCCCUCAGAGCUCGAGAACAUCUUCAGAUGCAAAGGAGGCAGGCUUCGGUGACGCGAUAGCGCCAACGUCCUCAACCUCCAAUGCAUCCCACCACAAGAUGAGGCCUGAAGCGCCUUUAUUUUUUG [G35A G42A G61A U106A U112G A121C G127U G128A] | -6.38
GACCAAUCUGCCCUCAGAGCUCGAGAACAUCUUCAGAUGCAGAGGAGGCAGGCUUCGGUGGCGCGAUACCGCCAACGUCCUCAACCUCCAAUGCAUCCCACCACAUGAUGAUGCUUGAAGAGCCUUGGUUUUUUG [G35A G69C C115U] | -6.53
GACCAAUCUGCCCUCAGAGCUCGAGAACAUCUUCAGAUGCAGAGGAGGCAGGCUUCGGUGGCGCGAUAGCGCCAACGUCCUCAACCUCAAAUGCAUCCCACCACAUGAUGAUGCCUGAAGAGCCUUGGUUUUUUG [G35A C89A] | -5.84
GACCAAUCUGCCCUCAGAGCUCGAGAACAUCUUCAGAUGCAGAGGAGGCAGGCUUCGGUGGCGCGAUAGCGCCAACGACCUCAACCUCCAAUGCAUCCCACCACAUGAUGAUGCCUGAAGAGCCUUGGUUUUUUG [G35A U78A] | -4.53
GACCAAUCUGCCCUCAGAGCUCGAGAACAUCUUCAGAUGCAGAGGAGGCAGGCUGCGGUGGCGCGAUAGCGCCAACGUCCUCAACCUCCAAUGCAUCCCACCACAUGAUGAUGCCUGAAGAGCCUUGGUUUUUUG [G35A U55G] | -4.9
GACCAAUCUGCCCUCAGAGCUCGAGAACAUCUUCAGAUGCAGAGGAGGCAGGCUUCGGUGGCGCGAUAGCGCCAACGUCCUCAACCUCCAAUGCAUCCCAGCACAUGAUGAUGCCUGAAGAGCCUUGGUUUUUUG [G35A C101G] | -5.52
GACCAAUCUGCCCUCAGAGCUCGAGAACAUCUUCAGAUGCAGAGGAGGCAGGCUUCGGUGGCGCGAUAGCGCCAACGUCCUCAACCUCCAAUGCAUCCCACCACAUGAUGAUGCCUGAAGAGCCUUGGUUCUUUG [G35A U131C] | -6.04
GACCAAUCUGCCCUCAGAGCUCGAGAACAUCUUCAGAUGCAGAGGAGGCAGGCUUCGGUGGCGCGAUAGCGCCAACGUCCUCAAUCUCCAAUGAAUCCCACCACAUGAUGAUGCCUGAAGAGCCUUGGUUUUUUG [G35A C85U C94A] | -6.51
GACCAAUCUGCCCUCAGAGCUCGAGAACAUCUUCAGAUGCAGAGGAGGCAGGCUUCGGUGCCGCGAUAGCGCCAACGUCCUCAACCUCCAAUGCAUCCCACCACAUGAUGCUGCCUGAAGAGCCUUGGUUUUUUG [G35A G61C A111C] | -5.93
GACCAAUCUGCCCUCAGAGCUCGAGAACAUCUUCAGAUGCAGAGGAGGCAGGCUUCGGUGGCGCGAUAGCGUCAUCCUCCUCAACCUCCAAUGCAUUCCACCACAUGAUGAUGCCUGAAAAGCCAUGGUUUUUUG [G35A C72U A75U G77C C97U G120A U125A] | -6.29
GACCAAUCUGCCCUCAGAGCUCGAGAACAUCUUCAGAUGCAGAGGAGGCAGGCUUCGGUGGCGCGAUAGCGCCAACGUCCUCAACCUCCAAUGCAUCCCACCACAUGAUGAUGCCUGAACAGCAUUGGUUUUUUG [G35A G120C C124A] | -3.97
GACCAAUCUGCCCUCAGAGCUCGAGAACAUCUUCAGAUGCAGAGGAGGCAGGCUUCGGUGGCGCGAUAGCGCAAACGGCCUCAACCUCCGAUGCAUCCCACCACAUGAUGAUGCGUGAAGCGCCUUGGUUUUUUG [G35A C73A U78G A90G C115G A121C] | -4.57
GACCAAUCUGCCCUCAGAGCUCGAGAACAUCUUCAGAUGCAGAGGAGGCAGGCUUCGGUGGCGCGAUAGUGCCAACGUGCUCAACCUCCAAUGCAUCCCACCACAUGAUGAUGCAUGAAGAGCCUUGGUUUUAUG [G35A C70U C79G C115A U133A] | -7.56
GACCAAUCUGCCCUCAGAGCUCGAGAACAUCUUCAGAUGCAGAGGAGGCAGGCUUCGGUGGCGCGAUAGCGCCAACGUCCUCAACCUCCAAUGCAUCCCACAACAUGAUGAUGCCUGAAGAGCCUUGGUUUUUUG [G35A C102A] | -4.61
GACCAAUCUGCCCUCAGAGCUCGAGAACAUCUUCAGAUGCAGAGGAGGCAGGCUUCGGUGGCGCGAUAGCGCCAACGUCCUCAACCUCCAAUGCAUCCCACCACAUGAUGAUGCCUGAAGAGCCUUGGUUUAUUG [G35A U132A] | -3.49
GACCAAUCUGCCCUCAGAGCUCGAGAACAUCUUCAGAUGCAGAGGAGGCAGGCUUCGGUGUCGCGAUAGCGCCAACGUCCUCAACCUCCAAUGCAUCCCACCACAUGAUGAUGCCUGAAGAGCCUUGGUUUUUUG [G35A G61U] | -3.61
GACCAAUCUGCCCUCAGAGCUCGAGAACAUCUUCAGAUGCAGAGAAGGCAGGCUUCGGUGGCGCGAUAGCGCCAACGUCCUCAACCUCCAAUGCAUCCCACCACAUGAUGAUGCCUGAAGAGCCUUGGUUUUUUG [G35A G45A] | -4.16
GACCAAUCUGCCCUCAGAGCUCGAGAACAUCUUCAGAUGCAGAGGAGGCAGGCUUCGGUGGAGCGAUAGCGCCAACGUCCUCAACCUCCAAUGCAUCCCACCACAUGAUGAUGCCUGAGGAGCCUUGGUUUUUUG [G35A C62A A119G] | -4.46
GACCAAUCUGCCCUCAGAGCUCGAGAACAUCUUCAGAUGCAGAGGAGGCAGUCUUCGGUGGCGCGAUAGCGCCAACGUCCUCAACCUCCAAUGCAUCCCACCACAUGAUGAUGCCUGAAGAGCCUUGGUUUUUUG [G35A G52U] | -3.5

Variant | polymerase ribozyme fitness (log ratio)
GACCAAUCUGCCCUCAGAGCUCGAGAACAUCUUCAGAUGCAGAGGAGGCAGGCUUCGGUGGCACGAUAGCGCCAACGUCCUCAACCUCCAAUGCAUCCCACCACAUGAUGAUGCCUGAAGAGCCUUGGUUUUUUG [G35A G63A] | -3.91
GACCAAUCUGCCCUCAGAGCUCGAGAACAUCUUCAGAUGCAGAGGAGGCAGGCUUCGGUGGCCCGAUAGCGCCAACGUCCUCAACCUCCAAUGCAUCCCACCACAUGAUGAUGCCUGAAGAGCCUUGGUUUUUUG [G35A G63C] | -5.56
GACCAAUCUGCCCUCAGAGCUCGAGAACAUCUUCAGAUGCAGAGGAGGCAGGCUUCGGCGGCGCGAUAGCGCCAACGUCCUCAACCUCCAAUGCAUCCCACCACAUGAUGAUGCCUGAAGAGCCUUGGUUUUUUG [G35A U59C] | -4.9
GACCAAUCUGCCCUCAGAGCUCGAGAACAUCUUCAGAUGCAGAGGAGGCAGGCUUCGGUGGCGCGAUAGCGCCAACGUCCUCAACCUCCAAUGCAUCCCACCACAUGAUGAUGCCUCAAGAGCCUUGGUUUUUUG [G35A G117C] | -6.51
GACCAAUCUGCCCUCAGAGCUCGAGAACAUCUUCAGAUGCAGAGGAGGCAGGCUUCGGUGGCGCGAUAGCGCCAACGUCCUCAACCUCCAAUGCAUCCCACCACAUGAUGAUGCCUUAAGAGCCUUGGUUUUUUG [G35A G117U] | -5.09
GACCAAUCUGCCCUCAGAGCUCGAGAACAUCUUCAGAUGCAGAGGAGGCAGGCUUCGGUUGCGCGAUAGCGCCAACGUCCUCAACCUCCAAUGCAUCCCACCACAUGAUGAUGCCUGAAGAGCCUUGGUUUUUUG [G35A G60U] | -3.33
GACCAAUCUGCCCUCAGAGCUCGAGAACAUCUUCAGAUGCAGAGGAGGCAGGCUUCGGUGGCGCGAUAGCGCCAACGUCCUCAACCUCCAAUGCAUCCCACCACAUGAUGAUGCCUGAAGAGGCUUGGGUUUUUG [G35A C123G U129G] | -2.61
GACCAAUCUGCCCUCAGAGCUCGAGAACAUCUUCAGAUGCAGAGGAGGCAGGCUUCGCUUGCGCGAUAGCGCCAACGUCCUCAACCUCCAAUGCAUCCCACCACAUGAUGAUGCCUGAAGAGCCUUGGUUUUUUG [G35A G58C G60U] | -5.24
GACCAAUCUGCCCUCAGAGCUCGAGAACAUCUUCAGAUGCAGAGGAGGCAGGCUUCGGUGGCGCGAUAGCGCCAACGUCCUCAACCUCCAAGGCAUCCCACCACAUGAUGAUGCCUGAAGGGCCAUGGUUUUUUG [G35A U92G A121G U125A] | -5.24
GACCAAUCUGCCCUCAGAGCUCGAGAACAUCUUCAGAUGCAGAGGAGGCAGGCUUCGGUGGCGCGAUAGCGCCAACGUCCUCAACCGCCAAUGCAUCCCACCACAUGAUGAUGCCUGAAGAGCCUUGGUUUUUUG [G35A U87G] | -3.91
GACCAAUCUGCCCUCAGAGCUCGAGAACAUCUUCAGAUGCAGAGGAGGCAGGCUUCGGUGGCGCGAUAGCGCCAACGUCCUCAACCUCCAAUGCAUCCCACCACAUGAUGAUGCCUGAAAAGCCUUGGUUUUUUG [G35A G120A] | -2.08
GACCAAUCUGCCCUCAGAGCUCGAGAACAUCUUCAGAUGCAGAGGAGGCAGGCUUCGGUGGCGCGAUAGCGCCAACGUCCUCAACCUCCAAUGCAUCCCACCACAUGAUGAUGCCUGAAGAGCGUUGGUUUUUUG [G35A C124G] | -2
GACCAAUCUGCCCUCAGAGCUCGAGAACAUCUUCAGAUGCAGAGGAGGCAGGCUUCGGUGGCGCGAUAGCGCCAACGUCCUCAACCUCCAAUGCAUCCCACCACAUGAUGAUGCCUGAAGAGACUUGGUUUUUUG [G35A C123A] | -3.41
GACCAAUCUGCCCUCAGAGCUCGAGAACAUCUUCAGAUGCAGAGGAGGCAGGCUCCGGUGGCGCGAUAGCGCCAACGUCCUCAACCUCCAAUGCAUCCCACCACAUGAUGAUGCUUGAAGAGCCUUGGUUUUUUG [G35A U55C C115U] | -5.27
GACCAAUCUGCCCUCAGAGCUCGAGAACAUCUUCAGAUGCAGAGGAGCCAGGCUUCGGUGGCGCGAUAGCGCCAACGUCCUCAACCUCCAAUGCAUCCCACCACAUGAUGAUGCCUGAAGAGCCUUGGUUUUUUG [G35A G48C] | -4.48
GACCAAUCUGCCCUCAGAGCUCGAGAACAUCUUCAGAUGCAGAGGAGGCAGGCUUCGGUGGCGCGAUAGCGCCAACGUCCUCAACCUCCAAUGCAUCCCACCACAUGAUGAUGCCUGAAGAGCCUUGGAUUUUUG [G35A U129A] | -5.19
GACCAAUCUGCCCUCAGAGCUCGAGAACAUCUUCAGAUGCAGAGGAGGCAGGCUUCGGUUGCGCGAUAGCGCCAACGUCCUCAACCUCCAAUGCAUCCCACCACAUGAUGAUGCCUGAAGUGCCUUGGUUUUUUG [G35A G60U A121U] | -2.03
GACCAAUCUGCCCUCAGAGCUCGAGAACAUCUUCAGAUGCAGAGGAGGCAGGCUUCGGUGGCGCGAUAGCGCCAACGUCCUCAACCUCCAAUGCAUCCCACCACAUGAUGAUGCCCGAAGAGCCUUGGUUUUUUG [G35A U116C] | -3.83
GACCAAUCUGCCCUCAGAGCUCGAGAACAUCUUCAGAUGCAGAGGAGGCAGGCUUCGAUGGCGCGAUAGCGCCAACGACCUCAACCUCCAAUGCAUCCCACCAUAUGAUGAUGCCUGAAGAGCCUUGGUUUUUUG [G35A G58A U78A C104U] | -4.33
GACCAAUCUGCCCUCAGAGCUCGAGAACAUCUUCAGAUGCAGAGGAGGCAGGCUUCGGUGGCGCGAUAGCGCCAACGUCCUCAACCUCCAAUGCAUCCCACCACAUGAUGAUCCCUGAAGAGCCUUGGUUUUUUG [G35A G113C] | -5.03
GACCAAUCUGCCCUCAGAGCUCGAGAACAUCUUCAGAUGCAGAGGAGGCAGGCUUCGGUGGCGCGAUAGCGCCAACUUCCUCAACCUCCAAUGCAUCCCACCACAUGAUGAUGCCUGAAGAGCCUUGGUUUUUUG [G35A G77U] | -3.89
